Reference: the supplement of paper PMC12764529
± gives the half width of the 95% confidence interval.

Experiments:
[1] = folding stability dG unfold from trypsin proteolysis; higher = more stable
How it was run: (§1)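 How resistant each design was to proteolysis was captured as K50, inferred by Bayesian fitting of sequencing counts. Unfolding free energy was then derived relative to a sequence-predicted unfolded-state K50 and a shared folded-state K50, per protease or combined. Digestion used trypsin and chymotrypsin at 11 threefold-diluted concentrations plus a no-protease condition, on mini-proteins under 80 residues without cysteine in a PA-tagged cDNA display construct. Designs were kept only when AlphaFold2 dimer inter-PAE was above 15.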

[2] = folding stability dG unfold from chymotrypsin proteolysis; higher = more stable
How it was run: as §1

[3] = folding stability dG unfold (combined trypsin and chymotrypsin); higher = more stable
How it was run: as §1

Q: Which “folding stability dG unfold” value [1] does the source give for “SAGGSAMTAEELARKLFPGAEVEVEVRLERNEDGSLSLRVEVRVRAAPPPEEEEVEEPEEVEEEEESAGGSA [r15_417_TrROS_Hall]” here?
A: 2.78 ± 0.16 kcal/mol

Q: What about the “folding stability dG unfold” value [2] of the same sequence?
A: 1.99 ± 0.052 kcal/mol

Q: And the “folding stability dG unfold” value [3]?
A: 2.2 ± 0.28 kcal/mol

Q: For “SAGGSAMTAEELKGMKVKITLKNGKKIEAKIKKVEVINGEIYIEIDGKKIKLKKNEKYKIEIVEKKSAGGSA [r15_355_TrROS_Hall]”, which “folding stability dG unfold” value [1] is on record?
A: 1.84 ± 0.093 kcal/mol

Q: What about the “folding stability dG unfold” value [2] of the same sequence?
A: 2.22 ± 0.067 kcal/mol

Q: What about the “folding stability dG unfold” value [3] of the same sequence?
A: 2.06 ± 0.16 kcal/mol

Q: Which results are given for “SAGGSAMTIEIEAPVPAGVEVDATALFVTPDGYLYLAEVRSVGPGWARITIPVYRFDDNLDDPDFLSAGGSA [r15_909_TrMRF]”?
A: folding stability dG unfold [1]: 2.04 ± 0.045 kcal/mol; folding stability dG unfold [2]: 2.19 ± 0.042 kcal/mol; folding stability dG unfold [3]: 2.17 ± 0.051 kcal/mol

Q: Which “folding stability dG unfold” value [1] does the source give for “SAGGSAMTITEDGTLTLEIKVPEDAPEATVKVTVLTDGKTLGEADPATGKVTLKVPPDVEVKVEVASAGGSA [r15_180_TrMRF]” here?
A: 1.09 ± 0.074 kcal/mol

Q: What about the “folding stability dG unfold” value [2] of the same sequence?
A: 1.87 ± 0.045 kcal/mol

Q: And the “folding stability dG unfold” value [3]?
A: 1.69 ± 0.13 kcal/mol

Q: With “SAGGSAMTITVTEETDPNTDRKTTTVSLSPGVSEEVLEELKAEAEKKGAKLTVYPEEGVVTVVTPESAGGSA [r15_542_JUSTAS]” as the sequence, how does the “folding stability dG unfold” value [1] read?
A: 0.0631 ± 0.052 kcal/mol

Q: What about the “folding stability dG unfold” value [2] of the same sequence?
A: 0.311 ± 0.065 kcal/mol

Q: What about the “folding stability dG unfold” value [3] of the same sequence?
A: 0.224 ± 0.17 kcal/mol

Q: For “SAGGSAMTITVTLTFKSEEEALAAIRELAEALGLEIESVEIRYDPETEEVTVTATIRLPPPPPELLSAGGSA [r15_254_TrROS_Hall]”, which “folding stability dG unfold” value [1] is on record?
A: 2.73 ± 0.16 kcal/mol

Q: And the “folding stability dG unfold” value [2]?
A: 2.62 ± 0.033 kcal/mol

Q: What about the “folding stability dG unfold” value [3] of the same sequence?
A: 2.75 ± 0.11 kcal/mol

Q: Which results are given for “SAGGSAMTKEEAKEYAEKRVKEEHPGWTVLGVEVTELPGKEVLTKVTVKPPENPDKTLEFEFKFPLSAGGSA [r15_627_JUSTAS]”?
A: folding stability dG unfold [1]: 2.34 ± 0.1 kcal/mol; folding stability dG unfold [2]: 2.61 ± 0.035 kcal/mol; folding stability dG unfold [3]: 2.54 ± 0.072 kcal/mol

Q: Which “folding stability dG unfold” value [1] does the source give for “SAGGSAMTPEEARARAEAIAEELAAEARAAGRAAEVTVEVTELPPELYRFTITFPGRTREVLLPVESAGGSA [r15_432_JUSTAS]” here?
A: -0.18 ± 0.18 kcal/mol

Q: And the “folding stability dG unfold” value [2]?
A: -0.262 ± 0.15 kcal/mol

Q: What about the “folding stability dG unfold” value [3] of the same sequence?
A: -0.16 ± 0.13 kcal/mol

Q: Which “folding stability dG unfold” value [1] does the source give for “SAGGSAMTPEELANVTVEVVTTTEPASPDLTLPDGTRLPPSTTVTTTTEVVVLPGGELLGTRVTVASAGGSA [r15_12_JUSTAS]” here?
A: -0.375 ± 0.051 kcal/mol

Q: And the “folding stability dG unfold” value [2]?
A: 1.03 ± 0.023 kcal/mol

Q: And the “folding stability dG unfold” value [3]?
A: 0.644 ± 0.043 kcal/mol

Q: Which “folding stability dG unfold” value [1] does the source give for “SAGGSAMTTTTSTDPATNKTYVTVTFPKDEALVEEVKEELKKKGIKEIKVYEFPENDLVRVEITVGSAGGSA [r2_358_JUSTAS]” here?
A: 0.452 ± 0.098 kcal/mol

Q: And the “folding stability dG unfold” value [2]?
A: 0.767 ± 0.13 kcal/mol

Q: What about the “folding stability dG unfold” value [3] of the same sequence?
A: 0.685 ± 0.14 kcal/mol

Q: Which “folding stability dG unfold” value [1] does the source give for “SAGGSAMTVKVRLRVRRRVFNEDGELVAEEELELEVEVEVRPPPPPPPPPLTAEELAEKLGLEPEDSAGGSA [r15_572_TrROS_Hall]” here?
A: 2.52 ± 0.093 kcal/mol

Q: And the “folding stability dG unfold” value [2]?
A: 3.37 ± 0.074 kcal/mol

Q: What about the “folding stability dG unfold” value [3] of the same sequence?
A: 3.19 ± 0.39 kcal/mol

Q: Which “folding stability dG unfold” value [1] does the source give for “SAGGSAMTVTTLPDGSTVIHLPSGTTITITTAPDGTKPITITPPDGVPTTFPASVSLEDAIKAALSSAGGSA [r15_371_JUSTAS]” here?
A: 3.58 ± 0.044 kcal/mol

Q: And the “folding stability dG unfold” value [2]?
A: 2.67 ± 0.034 kcal/mol

Q: And the “folding stability dG unfold” value [3]?
A: 3.1 ± 0.032 kcal/mol

Q: Which “folding stability dG unfold” value [1] does the source give for “SAGGSAMVETKTFEFEFEFEFENPDGEPATVTVPVTVEVPVLVPVAAPGPPGANGPEKELEELEKESAGGSA [r15_728_TrMRF]” here?
A: 1.05 ± 0.096 kcal/mol

Q: And the “folding stability dG unfold” value [2]?
A: 0.641 ± 0.065 kcal/mol

Q: And the “folding stability dG unfold” value [3]?
A: 0.782 ± 0.13 kcal/mol

Q: With “SAGGSAMVMITIKIKFPGNEVEINMPAEDLDELLSHPELGDNFEITEIEVMPIPPPPVDPEQAEEKSAGGSA [r15_460_TrROS]” as the sequence, how does the “folding stability dG unfold” value [1] read?
A: 1.21 ± 0.15 kcal/mol

Q: What about the “folding stability dG unfold” value [2] of the same sequence?
A: 0.885 ± 0.11 kcal/mol

Q: And the “folding stability dG unfold” value [3]?
A: 1.03 ± 0.24 kcal/mol

Q: What does the source list for “SAGGSAMVTPEERVEAALAYIRGKYGFPLSATPAQLREAGLPVRVELTVTDADGRPLATVTLEIPGSAGGSA [r15_391_TrMRF]”?
A: folding stability dG unfold [1]: 1.39 ± 0.037 kcal/mol; folding stability dG unfold [2]: 1.78 ± 0.089 kcal/mol; folding stability dG unfold [3]: 1.65 ± 0.07 kcal/mol

Q: With “SAGGSAMVTVTRYPDGTYVVEATGRGDSRTFTLDLPLEEIKEVLEKEGIKIDKIEVKPAPVDPAKVSAGGSA [r15_576_JUSTAS]” as the sequence, how does the “folding stability dG unfold” value [1] read?
A: 1.268 ± 0.012 kcal/mol

Q: What about the “folding stability dG unfold” value [2] of the same sequence?
A: 1.5 ± 0.034 kcal/mol

Q: And the “folding stability dG unfold” value [3]?
A: 1.4 ± 0.05 kcal/mol

Q: For “SAGGSAMVVTVPASSLTPESIRALARENPGPVELVFPEEGRRVTVEVRGDGVVRVEEHPLDPAELASAGGSA [r15_751_JUSTAS]”, which “folding stability dG unfold” value [1] is on record?
A: -1.07 ± 0.19 kcal/mol

Q: And the “folding stability dG unfold” value [2]?
A: -0.536 ± 0.1 kcal/mol

Q: What about the “folding stability dG unfold” value [3] of the same sequence?
A: -0.621 ± 0.083 kcal/mol

Q: For “SAGGSAMYEVTEEKDPNSDYTTVTITFPNGATVTITYNPKTNTITADVDPAVDPEVAAAAAKAVLSSAGGSA [r15_511_JUSTAS]”, which “folding stability dG unfold” value [1] is on record?
A: 1.92 ± 0.067 kcal/mol

Q: And the “folding stability dG unfold” value [2]?
A: 2.39 ± 0.028 kcal/mol

Q: And the “folding stability dG unfold” value [3]?
A: 2.23 ± 0.071 kcal/mol
